Experiments:
SHP2-C SH2 = experiment: SH2 binding enrichment of the phosphorylated peptide, bacterial display (enrichment ratio); higher = better substrate or ligand; peptides without Tyr show the background
Grb2 SH2 = Grb2 SH2 (UniProt P62993); experiment: as above
c-Src SH2 = experiment: as above
EPHB1 = EPHB1 (UniProt P54762); experiment: phosphorylation enrichment, bacterial display (enrichment ratio); higher = better substrate or ligand; peptides without Tyr show the background
c-Src = experiment: as above
FGFR1 = FGFR1 (UniProt P11362); experiment: as above
MERTK = MERTK (UniProt Q12866); experiment: as above
Fyn = Fyn (UniProt P06241); experiment: as above
AncSZ = experiment: as above
Hck = Hck (UniProt P08631); experiment: as above
Fes = Fes (UniProt P07332); experiment: as above
EPHB2 = EPHB2 (UniProt P29323); experiment: as above
Jak2 = Jak2 (UniProt O60674); experiment: as above
FGFR3 = FGFR3 (UniProt P22607); experiment: as above
c-Abl (mouse) = experiment: as above
Fer (mouse) = experiment: as above
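Wherever SH2 binding enrichment of the phosphorylated peptide, bacterial display is given: peptide library displayed on the E. coli surface as eCPX fusions, selected cells deep-sequenced, score is each peptide's frequency after selection divided by its frequency in the input.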
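Wherever phosphorylation enrichment, bacterial display is given: 11-residue human phosphosite peptides and single-mutation variants displayed on the E. coli surface, counted by deep sequencing, each peptide's frequency after selection divided by its frequency in the unselected input library; frequency after pTyr selection over input frequency; kinase dosed for 20-30% of maximal phosphorylation in three min.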

Sequence of Fyn (P06241 whole entry, looked up): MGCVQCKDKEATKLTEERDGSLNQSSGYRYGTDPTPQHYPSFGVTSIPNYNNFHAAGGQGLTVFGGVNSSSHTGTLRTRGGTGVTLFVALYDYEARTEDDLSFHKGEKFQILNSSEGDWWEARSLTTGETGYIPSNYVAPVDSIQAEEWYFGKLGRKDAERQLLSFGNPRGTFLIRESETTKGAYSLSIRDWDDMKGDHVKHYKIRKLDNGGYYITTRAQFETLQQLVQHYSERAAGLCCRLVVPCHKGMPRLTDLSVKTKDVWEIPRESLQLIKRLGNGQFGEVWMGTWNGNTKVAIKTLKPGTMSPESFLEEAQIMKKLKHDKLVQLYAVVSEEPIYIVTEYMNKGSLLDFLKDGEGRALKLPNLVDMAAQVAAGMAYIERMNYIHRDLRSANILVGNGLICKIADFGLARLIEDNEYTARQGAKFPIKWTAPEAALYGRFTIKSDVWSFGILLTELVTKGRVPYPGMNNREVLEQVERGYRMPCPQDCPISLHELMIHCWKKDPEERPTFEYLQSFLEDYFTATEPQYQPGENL
Sequence of Fes (P07332 whole entry, looked up): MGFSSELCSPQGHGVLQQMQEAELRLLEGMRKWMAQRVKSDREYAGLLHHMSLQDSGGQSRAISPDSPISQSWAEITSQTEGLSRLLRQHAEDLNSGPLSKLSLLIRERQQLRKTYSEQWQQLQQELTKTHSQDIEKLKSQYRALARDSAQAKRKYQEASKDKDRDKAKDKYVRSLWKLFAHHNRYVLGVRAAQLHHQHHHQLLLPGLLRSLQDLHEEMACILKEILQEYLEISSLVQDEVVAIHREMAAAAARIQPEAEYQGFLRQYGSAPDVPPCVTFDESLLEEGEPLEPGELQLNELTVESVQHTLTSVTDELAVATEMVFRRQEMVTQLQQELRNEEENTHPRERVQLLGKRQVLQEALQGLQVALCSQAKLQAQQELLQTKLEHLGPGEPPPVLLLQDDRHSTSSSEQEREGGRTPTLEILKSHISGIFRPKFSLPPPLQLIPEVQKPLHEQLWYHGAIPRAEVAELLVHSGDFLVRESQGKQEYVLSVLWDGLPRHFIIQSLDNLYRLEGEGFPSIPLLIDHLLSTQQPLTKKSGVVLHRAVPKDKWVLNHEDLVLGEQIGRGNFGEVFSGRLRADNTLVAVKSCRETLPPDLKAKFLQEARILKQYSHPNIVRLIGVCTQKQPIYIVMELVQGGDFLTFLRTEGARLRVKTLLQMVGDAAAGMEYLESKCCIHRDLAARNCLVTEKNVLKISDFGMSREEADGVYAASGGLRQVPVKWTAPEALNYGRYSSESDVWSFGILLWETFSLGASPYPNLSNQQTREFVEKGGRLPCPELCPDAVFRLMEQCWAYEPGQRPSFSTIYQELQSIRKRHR
Sequence of Jak2 (O60674 whole entry, looked up): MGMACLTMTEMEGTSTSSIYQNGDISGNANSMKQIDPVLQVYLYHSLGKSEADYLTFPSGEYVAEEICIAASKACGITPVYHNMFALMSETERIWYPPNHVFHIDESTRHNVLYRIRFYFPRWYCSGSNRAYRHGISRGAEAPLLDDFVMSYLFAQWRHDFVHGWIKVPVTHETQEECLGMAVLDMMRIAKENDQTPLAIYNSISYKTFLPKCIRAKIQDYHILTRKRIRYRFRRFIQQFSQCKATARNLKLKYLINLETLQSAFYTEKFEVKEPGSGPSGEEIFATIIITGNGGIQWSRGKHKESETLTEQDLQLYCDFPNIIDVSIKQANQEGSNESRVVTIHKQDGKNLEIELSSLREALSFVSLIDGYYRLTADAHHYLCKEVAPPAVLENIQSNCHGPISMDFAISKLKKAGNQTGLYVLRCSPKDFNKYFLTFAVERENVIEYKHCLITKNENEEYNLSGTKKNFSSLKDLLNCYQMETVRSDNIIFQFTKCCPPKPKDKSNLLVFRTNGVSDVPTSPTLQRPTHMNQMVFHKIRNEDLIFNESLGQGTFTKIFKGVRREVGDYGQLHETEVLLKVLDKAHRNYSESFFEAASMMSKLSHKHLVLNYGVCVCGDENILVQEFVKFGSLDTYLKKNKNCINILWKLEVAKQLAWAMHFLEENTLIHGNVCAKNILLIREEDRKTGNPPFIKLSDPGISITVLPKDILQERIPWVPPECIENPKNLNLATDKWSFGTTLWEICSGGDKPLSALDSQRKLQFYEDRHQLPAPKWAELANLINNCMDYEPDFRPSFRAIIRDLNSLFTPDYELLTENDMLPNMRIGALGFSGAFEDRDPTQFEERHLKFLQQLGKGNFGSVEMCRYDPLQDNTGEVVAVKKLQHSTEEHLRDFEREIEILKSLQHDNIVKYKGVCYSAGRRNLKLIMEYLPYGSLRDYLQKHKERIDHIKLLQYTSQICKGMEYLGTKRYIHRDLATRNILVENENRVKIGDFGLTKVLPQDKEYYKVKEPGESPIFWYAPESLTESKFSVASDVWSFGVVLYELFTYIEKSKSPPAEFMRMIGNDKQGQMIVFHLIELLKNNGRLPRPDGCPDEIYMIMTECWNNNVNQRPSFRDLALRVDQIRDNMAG
Sequence of MERTK (Q12866 whole entry, looked up): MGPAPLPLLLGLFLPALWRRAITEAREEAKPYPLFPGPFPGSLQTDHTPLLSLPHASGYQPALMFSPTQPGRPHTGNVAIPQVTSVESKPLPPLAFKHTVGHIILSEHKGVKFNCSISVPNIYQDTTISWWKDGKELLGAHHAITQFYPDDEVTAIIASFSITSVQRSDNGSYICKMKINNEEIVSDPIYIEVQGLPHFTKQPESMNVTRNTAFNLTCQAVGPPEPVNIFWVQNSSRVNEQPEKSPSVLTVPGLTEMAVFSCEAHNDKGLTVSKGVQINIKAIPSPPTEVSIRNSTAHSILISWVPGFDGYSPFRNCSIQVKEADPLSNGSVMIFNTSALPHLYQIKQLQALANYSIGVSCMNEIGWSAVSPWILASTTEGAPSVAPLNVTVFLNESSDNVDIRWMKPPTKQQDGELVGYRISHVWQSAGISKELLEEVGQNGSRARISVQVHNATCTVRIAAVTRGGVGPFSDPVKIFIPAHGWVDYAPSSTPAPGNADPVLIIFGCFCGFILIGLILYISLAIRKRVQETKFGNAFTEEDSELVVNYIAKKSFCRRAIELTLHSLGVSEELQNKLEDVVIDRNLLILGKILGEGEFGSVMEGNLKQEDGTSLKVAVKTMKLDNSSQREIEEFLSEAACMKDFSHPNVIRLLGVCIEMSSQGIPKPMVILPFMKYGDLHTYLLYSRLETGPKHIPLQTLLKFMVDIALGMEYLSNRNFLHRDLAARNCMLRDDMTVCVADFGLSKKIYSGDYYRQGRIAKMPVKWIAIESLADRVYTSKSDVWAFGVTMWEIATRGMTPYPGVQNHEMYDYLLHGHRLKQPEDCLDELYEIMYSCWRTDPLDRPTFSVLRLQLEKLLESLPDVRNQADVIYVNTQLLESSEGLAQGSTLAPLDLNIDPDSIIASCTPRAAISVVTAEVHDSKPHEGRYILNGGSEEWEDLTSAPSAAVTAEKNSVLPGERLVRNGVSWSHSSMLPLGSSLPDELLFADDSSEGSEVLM
Sequence of Grb2 SH2 (P62993 whole entry, looked up): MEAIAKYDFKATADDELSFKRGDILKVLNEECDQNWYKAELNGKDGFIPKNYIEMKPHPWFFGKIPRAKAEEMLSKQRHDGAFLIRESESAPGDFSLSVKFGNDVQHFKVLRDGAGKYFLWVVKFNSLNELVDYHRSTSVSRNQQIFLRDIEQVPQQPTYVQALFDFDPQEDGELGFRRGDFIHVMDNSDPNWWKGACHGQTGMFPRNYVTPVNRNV
Sequence of Hck (P08631 whole entry, looked up): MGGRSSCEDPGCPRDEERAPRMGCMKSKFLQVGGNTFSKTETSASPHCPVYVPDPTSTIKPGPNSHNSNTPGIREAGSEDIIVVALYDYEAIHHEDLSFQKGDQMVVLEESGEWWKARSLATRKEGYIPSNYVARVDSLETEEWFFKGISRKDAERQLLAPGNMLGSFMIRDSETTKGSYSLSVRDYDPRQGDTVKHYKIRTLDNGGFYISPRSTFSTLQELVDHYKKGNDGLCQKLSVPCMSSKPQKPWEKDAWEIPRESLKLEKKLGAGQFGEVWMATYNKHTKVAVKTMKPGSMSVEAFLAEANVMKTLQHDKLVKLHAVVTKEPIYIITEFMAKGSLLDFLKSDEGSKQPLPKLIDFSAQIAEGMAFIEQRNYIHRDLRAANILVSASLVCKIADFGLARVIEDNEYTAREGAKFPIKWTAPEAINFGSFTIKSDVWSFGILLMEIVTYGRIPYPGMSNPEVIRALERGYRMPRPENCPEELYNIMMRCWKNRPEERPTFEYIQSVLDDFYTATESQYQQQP
Sequence of FGFR3 (P22607 whole entry, looked up): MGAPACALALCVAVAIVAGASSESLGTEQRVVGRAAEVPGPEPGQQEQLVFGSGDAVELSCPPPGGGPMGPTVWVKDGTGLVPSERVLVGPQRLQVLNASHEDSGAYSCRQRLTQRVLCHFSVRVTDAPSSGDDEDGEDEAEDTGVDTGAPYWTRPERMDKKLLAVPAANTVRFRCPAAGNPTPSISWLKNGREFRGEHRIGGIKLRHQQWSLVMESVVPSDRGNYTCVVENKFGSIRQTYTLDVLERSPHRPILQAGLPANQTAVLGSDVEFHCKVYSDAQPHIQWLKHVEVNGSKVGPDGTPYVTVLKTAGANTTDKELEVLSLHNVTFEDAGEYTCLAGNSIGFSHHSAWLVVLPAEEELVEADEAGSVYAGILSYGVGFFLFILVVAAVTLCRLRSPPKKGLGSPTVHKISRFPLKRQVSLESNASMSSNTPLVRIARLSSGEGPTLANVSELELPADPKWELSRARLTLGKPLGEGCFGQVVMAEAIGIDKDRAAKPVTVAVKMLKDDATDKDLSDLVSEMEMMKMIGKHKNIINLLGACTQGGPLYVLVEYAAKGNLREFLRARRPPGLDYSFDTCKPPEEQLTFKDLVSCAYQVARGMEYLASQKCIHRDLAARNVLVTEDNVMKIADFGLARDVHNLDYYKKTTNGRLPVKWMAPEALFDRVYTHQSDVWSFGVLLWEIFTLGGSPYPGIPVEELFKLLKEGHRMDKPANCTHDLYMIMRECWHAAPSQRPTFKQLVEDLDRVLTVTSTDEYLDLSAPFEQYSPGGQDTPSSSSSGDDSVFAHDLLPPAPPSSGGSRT

| Sequence | SH2 binding enrichment (SHP2-C SH2) | SH2 binding enrichment (Grb2 SH2) | SH2 binding enrichment (c-Src SH2) | phosphorylation enrichment (EPHB1) | phosphorylation enrichment (c-Src) | phosphorylation enrichment (FGFR1) | phosphorylation enrichment (MERTK) | phosphorylation enrichment (Fyn) | phosphorylation enrichment (AncSZ) | phosphorylation enrichment (Hck) | phosphorylation enrichment (Fes) | phosphorylation enrichment (EPHB2) | phosphorylation enrichment (Jak2) | phosphorylation enrichment (FGFR3) | phosphorylation enrichment (c-Abl (mouse)) | phosphorylation enrichment (Fer (mouse)) |
| --- | --- | --- | --- | --- | --- | --- | --- | --- | --- | --- | --- | --- | --- | --- | --- | --- |
| TDGNGYISFNE [LCP1_Y28] | 1.98 | 0.922 | 36 | 0.476 | 0.603 | 0.546 | 0.412 | 0.454 | 0.923 | 0.458 | 1.13 | 0.485 | 0.824 | 0.752 | 0.624 | 0.489 |
| LDAGEYCVPRG [BEX1_Y43] | 0.715 | 0.844 | 0.453 | 3.38 | 0.816 | 1.32 | 0.866 | 1.26 | 8.78 | 1.57 | 2.01 | 3.87 | 1.05 | 1.73 | 3.62 | 1.47 |
| SKEPFYVRCIK [MYO1D_Y586_YF] | 0.79 | 0.8 | 0.413 | 0.951 | 0.354 | 0.42 | 0.347 | 0.339 | 0.939 | 0.434 | 1.18 | 0.56 | 0.921 | 0.634 | 0.727 | 0.449 |
| GIVEDYRPPFF [ACVRL1_Y421_YF] | 0.616 | 0.818 | 0.521 | 0.497 | 0.42 | 0.468 | 0.417 | 0.464 | 0.825 | 0.413 | 0.899 | 0.498 | 0.814 | 0.667 | 0.701 | 0.443 |
| PVQAASQKVVA [HBB_Y131_Y131S] | 0.712 | 0.623 | 0.432 | 0.592 | 0.469 | 0.477 | 0.396 | 0.445 | 0.482 | 0.426 | 1.36 | 0.414 | 0.398 | 1.55 | 0.571 | 0.414 |
| FSTSPYLLEAA [BRIP1_Y921_YF] | 1.17 | 0.954 | 0.577 | 0.488 | 1.57 | 0.408 | 0.437 | 3.49 | 0.782 | 0.557 | 0.962 | 0.494 | 0.724 | 0.667 | 0.458 | 0.475 |
| GKTQQYDCKWF [BCR_Y751_YF] | 0.624 | 0.826 | 0.466 | 0.596 | 0.43 | 0.472 | 0.451 | 0.432 | 0.848 | 0.425 | 1.07 | 0.563 | 0.927 | 0.63 | 0.748 | 0.463 |
| ADCRYYTFPQM [GAMT_Y223_A224T] | 1.34 | 1.05 | 3.2 | 4.67 | 4.77 | 10.9 | 9.97 | 3.97 | 3.09 | 3.29 | 0.998 | 2.84 | 4.44 | 7.83 | 1.99 | 4.67 |
| DNAFQYMLTDR [MYH7_Y164_YF] | 0.767 | 0.923 | 0.685 | 0.44 | 0.543 | 0.461 | 0.374 | 0.47 | 0.955 | 0.494 | 1.02 | 0.496 | 0.738 | 0.584 | 0.47 | 0.472 |
| TLGPFYPSLLF [CRYAA_Y18_R21L] | 0.524 | 0.588 | 0.366 | 0.687 | 0.455 | 0.646 | 0.452 | 0.535 | 0.865 | 0.51 | 1.03 | 0.541 | 0.776 | 1.09 | 0.667 | 0.544 |
| ETDSEYVKLSK [C7orf57_Y70_A74S] | 0.588 | 1.1 | 0.753 | 0.524 | 0.451 | 0.516 | 0.435 | 0.533 | 1.01 | 0.604 | 1.13 | 0.63 | 1.01 | 0.667 | 0.695 | 0.499 |
| KFEDVYVGICL [B3GALNT1_Y269] | 0.41 | 0.647 | 0.458 | 0.857 | 2.92 | 1.23 | 0.592 | 3.06 | 1.37 | 1.99 | 1.33 | 0.715 | 1.16 | 1.24 | 1.02 | 2.52 |
| LAARYYNWVCF [FLT4_Y1231_S1235C] | 0.752 | 4.36 | 1.07 | 0.899 | 0.512 | 1.96 | 1.04 | 0.777 | 1.37 | 0.588 | 1.51 | 0.615 | 1.11 | 1.94 | 0.977 | 1.39 |
| SGGGLYRDMGA [CBX8_Y321] | 0.589 | 0.842 | 0.542 | 0.53 | 0.373 | 0.524 | 0.42 | 0.48 | 0.564 | 0.428 | 0.618 | 0.624 | 0.557 | 0.522 | 0.502 | 0.373 |
| FSQETYFRVSN [ABCD1_Y180_Q178E_YF] | 0.544 | 0.481 | 0.466 | 1.08 | 1.51 | 1.64 | 0.74 | 0.592 | 1 | 0.868 | 1.1 | 0.706 | 3 | 1.23 | 0.661 | 0.45 |
| QRTMKYTTATE [MCCC1_Y41_G46E] | 0.635 | 0.768 | 0.521 | 0.791 | 0.706 | 0.683 | 0.862 | 0.781 | 1.43 | 0.966 | 1.23 | 1.43 | 0.975 | 1.11 | 0.496 | 0.607 |
| PQQLWYTHKKK [UBTF_Y207_E210K] | 0.702 | 0.592 | 0.515 | 0.774 | 0.7 | 0.888 | 1.22 | 0.52 | 1.14 | 0.821 | 1.14 | 1.14 | 1.07 | 0.589 | 0.981 | 0.598 |

| Sequence | SH2 binding enrichment (SHP2-C SH2) | SH2 binding enrichment (Grb2 SH2) | SH2 binding enrichment (c-Src SH2) | phosphorylation enrichment (EPHB1) | phosphorylation enrichment (c-Src) | phosphorylation enrichment (FGFR1) | phosphorylation enrichment (MERTK) | phosphorylation enrichment (Fyn) | phosphorylation enrichment (AncSZ) | phosphorylation enrichment (Hck) | phosphorylation enrichment (Fes) | phosphorylation enrichment (EPHB2) | phosphorylation enrichment (Jak2) | phosphorylation enrichment (FGFR3) | phosphorylation enrichment (c-Abl (mouse)) | phosphorylation enrichment (Fer (mouse)) |
| --- | --- | --- | --- | --- | --- | --- | --- | --- | --- | --- | --- | --- | --- | --- | --- | --- |
| TNRSVYFKPSL [NUP153_Y382] | 2.21 | 0.948 | 0.588 | 0.453 | 0.511 | 0.448 | 0.455 | 0.421 | 0.667 | 0.551 | 0.595 | 0.369 | 0.66 | 0.447 | 0.556 | 0.433 |
| ILGLEYSLRLP [HELZ2_Y1304_V1308L] | 0.648 | 0.877 | 0.401 | 0.814 | 1.08 | 0.542 | 0.5 | 0.628 | 1.37 | 0.479 | 1.44 | 0.56 | 1.33 | 0.942 | 0.937 | 0.649 |
| VHYLVYHHHHH [CACNA1H_Y519_H516Y] | 1.45 | 0.985 | 1 | 0.687 | 0.587 | 0.7 | 0.773 | 0.537 | 1.17 | 0.632 | 2.17 | 0.666 | 1.49 | 1.07 | 1.4 | 0.678 |
| FRQNVYIPGSN [PCDHGA1_Y895_YF] | 0.602 | 0.804 | 0.425 | 0.43 | 0.435 | 0.416 | 0.416 | 0.447 | 0.576 | 0.442 | 0.613 | 0.442 | 0.584 | 0.501 | 0.536 | 0.402 |
| QMVGKYASSYM [AVPR2_Y124_M123K] | 1.21 | 1.02 | 0.654 | 0.336 | 0.459 | 0.29 | 0.475 | 0.529 | 0.626 | 0.379 | 0.736 | 0.401 | 0.717 | 0.452 | 0.786 | 0.266 |
| CIILLYIFLKN [STXBP1_Y411_R406C] | 1.74 | 2.18 | 1.49 | 0.441 | 0.37 | 0.392 | 0.363 | 0.378 | 0.676 | 0.465 | 0.693 | 0.275 | 0.553 | 0.531 | 0.492 | 0.406 |
| VEFAKYGSLRG [RET_Y809_YF] | 0.82 | 0.817 | 0.584 | 0.403 | 0.437 | 0.417 | 0.397 | 0.528 | 0.629 | 0.488 | 0.664 | 0.458 | 0.541 | 0.469 | 0.622 | 0.4 |
| PLFKICVAELI [MRPL28_Y230_Y230C] | 0.829 | 0.926 | 0.496 | 1.06 | 0.394 | 0.499 | 0.469 | 0.73 | 1.2 | 0.692 | 1.57 | 0.888 | 1.31 | 1.14 | 0.718 | 0.707 |
| SVQIVYKPVDL [MAPT_Y627] | 0.845 | 0.951 | 0.515 | 0.698 | 0.464 | 0.409 | 0.376 | 0.4 | 1.17 | 0.455 | 1.12 | 0.499 | 0.891 | 0.65 | 0.689 | 0.467 |
| ADYYDYGRGLS [KHDRBS3_Y304_H306R] | 6.25 | 0.698 | 0.564 | 15.9 | 4.1 | 17.9 | 3.88 | 6.79 | 3.83 | 7.62 | 0.831 | 17.4 | 6.26 | 15.5 | 0.967 | 1.22 |
| AAAAMYTFLPD [MYORG_Y36] | 0.744 | 1.12 | 4.32 | 2.82 | 4.45 | 13.5 | 10.9 | 1.61 | 1.26 | 4.23 | 1.12 | 1.46 | 1.31 | 12 | 1 | 1 |
| EGTATYAAAVL [JUP_Y644] | 0.722 | 0.847 | 0.493 | 0.561 | 0.897 | 0.394 | 0.438 | 0.858 | 0.587 | 0.987 | 0.661 | 1.24 | 0.501 | 0.458 | 0.639 | 1.06 |
| KSIDEYLKLVG [RASAL2_Y381_E379D] | 0.797 | 0.992 | 0.556 | 0.378 | 0.37 | 0.465 | 0.34 | 0.406 | 0.843 | 0.489 | 0.73 | 0.596 | 0.761 | 0.445 | 0.449 | 0.374 |
| KFMVGYEMLAQ [GALT_Y339] | 0.892 | 1.33 | 3.23 | 0.519 | 0.382 | 0.553 | 0.343 | 0.417 | 0.88 | 0.526 | 0.897 | 0.504 | 0.833 | 0.697 | 0.622 | 0.511 |
| FDAHIYEGRVI [PRKCD_Y64] | 0.654 | 0.913 | 0.713 | 0.544 | 2.08 | 0.546 | 0.47 | 1.68 | 0.929 | 4.25 | 0.91 | 0.609 | 0.639 | 0.574 | 0.636 | 2.12 |
| RAEIVYKSPVV [MAPT_Y711_G706R] | 0.765 | 0.869 | 0.452 | 0.663 | 0.723 | 0.783 | 0.415 | 0.482 | 0.995 | 0.674 | 1.46 | 0.507 | 0.779 | 0.857 | 16.4 | 0.363 |

Source: the supplement of paper PMC10065799, “High-throughput profiling of sequence recognition by tyrosine kinases and SH2 domains using bacterial peptide display” (eLife, 2023)
